These results are taken from publication PMC10344914, “Discovery and mechanism-guided engineering of BHET hydrolases for improved PET recycling and upcycling” (Nature Communications, 2023).

Substrate in data set [1]: O=C(OCCO)c1ccc(C(=O)OCCO)cc1
Description: purified protein. The data set is classed as biochemical, Chryseobacterium sp. PET-29. The conditions noted are these: 50 mM potassium phosphate (Na2HPO4-NaH2PO4), pH 7.5, 30 °C, BHET 0.8-15 mM.

Substrate in data set [2]: O=C(OCCO)c1ccc(C(=O)OCCO)cc1
Kind of data set: purified protein. In kind it is biochemical, Bacillus subtilis. The following applies: 50 mM potassium phosphate (Na2HPO4-NaH2PO4), pH 7.5, 30 °C, BHET 0.8-15 mM.

B1: ChryBHETase (Chryseobacterium sp. PET-29) (protein)
chain: MTTQQHKKIHTFHTSFGTIPALKGNGVIRAKSIRYARSQRFKKPEPLPYPEHDEIPDKTPVCPQNVSPLLDRLIQKTDVEQFEPDESPQFLTITRPEHFNENEKLPVIVWIHGGSYEIGCGDLPTSDPSVWVKEQHIIVVSVSYRLGLFGFLGGSEERPANLGLYDMIAALQWIKQYIRDFGGDPENITLFGQSSGGDAIAHLMISEETENLFRHVIIHSAPLGFRINRQKMSHEFFLKTDILKDEPDALKMVAGYRTFLPSFRKYGLKTSMPFCTQYGHPPLCQEEETMPNWKQNAKKYDVLIGSNQDETAFYVKTSQTGIYTYLPQRILNKIVRKTTASIYEKPAKAFAENLAAGGGNVYQFVIRSTLKSNNIGASHCVDLPLLFENKEAWQSAELLKDVPWEYIQENGKKLRALWAEFARSGSISEDSERPEILKLKKVKN
notes: catalytic triad S194-E310-H379; V66-K76 barrier
Consider B1, for which, in the data set “purified protein [1]”, the Km – broadly, the substrate concentration at which the rate is half of its maximum – was 90 ± 20 µM; the kcat (in general, the maximal rate divided by the concentration of active sites) was found to be 6.85 ± 0.53 s⁻¹; the kcat/Km (usually the second-order rate constant that governs catalysis at low substrate concentration) stood at 77400 ± 11000 M⁻¹ s⁻¹.

B2: BsEst (Bacillus subtilis subsp. subtilis str. 168; DEL410-418/INS409GG) (protein)
chain: MTHQIVTTQYGKVKGTTENGVHKWKGIPYAKPPVGQWRFKAPEPPEVWEDVLDATAYGSICPQPSDLLSLSYTELPRQSEDCLYVNVFAPDTPSKNLPVMVWIHGGAFYLGAGSEPLYDGSKLAAQGEVIVVTLNYRLGPFGFLHLSSFNEAYSDNLGLLDQAAALKWVRENISAFGGDPDNVTVFGESAGGMSIAALLAMPAAKGLFQKAIMESGASRTMTKEQAASTSAAFLQVLGINEGQLDKLHTVSAEDLLKAADQLRIAEKENIFQLFFQPALDPKTLPEEPEKAIAEGAASGIPLLIGTTRDEGYLFFTPDSDVHSQETLDAALEYLLGKPLAEKVADLYPRSLESQIHMMTDLLFWRPAVAYASAQSHYAPVWMYRFDWHPKKPPYNKAFHALELPFVFGNGGAEITDEVKQLSHTIQSAWITFAKTGNPSTEAVNWPAYHEETRETLILDSEITIENDPESEKRQKLFPSKGE
notes: catalytic triad S189-E310-H399; L410-K418 barrier
Regarding B2, in the data set “purified protein [2]”, the Km worked out at 80 ± 30 µM, the kcat is 102 ± 5.18 s⁻¹ and the kcat/Km was determined as 1.35e+06 ± 334000 M⁻¹ s⁻¹.

B3: ChryBHETase (Chryseobacterium sp. PET-29; DEL66-76/INS65GG) (protein)
chain: MTTQQHKKIHTFHTSFGTIPALKGNGVIRAKSIRYARSQRFKKPEPLPYPEHDEIPDKTPVCPQNGGTDVEQFEPDESPQFLTITRPEHFNENEKLPVIVWIHGGSYEIGCGDLPTSDPSVWVKEQHIIVVSVSYRLGLFGFLGGSEERPANLGLYDMIAALQWIKQYIRDFGGDPENITLFGQSSGGDAIAHLMISEETENLFRHVIIHSAPLGFRINRQKMSHEFFLKTDILKDEPDALKMVAGYRTFLPSFRKYGLKTSMPFCTQYGHPPLCQEEETMPNWKQNAKKYDVLIGSNQDETAFYVKTSQTGIYTYLPQRILNKIVRKTTASIYEKPAKAFAENLAAGGGNVYQFVIRSTLKSNNIGASHCVDLPLLFENKEAWQSAELLKDVPWEYIQENGKKLRALWAEFARSGSISEDSERPEILKLKKVKN
notes: as for B1
As to B3, in “purified protein [1]”, the Km came out at 120 ± 30 µM, the kcat was 12.9 ± 1.24 s⁻¹ and the catalytic efficiency (kcat/Km) worked out at 109000 ± 12900 M⁻¹ s⁻¹.

B4: BsEst (Bacillus subtilis subsp. subtilis str. 168) (protein)
chain: MTHQIVTTQYGKVKGTTENGVHKWKGIPYAKPPVGQWRFKAPEPPEVWEDVLDATAYGSICPQPSDLLSLSYTELPRQSEDCLYVNVFAPDTPSKNLPVMVWIHGGAFYLGAGSEPLYDGSKLAAQGEVIVVTLNYRLGPFGFLHLSSFNEAYSDNLGLLDQAAALKWVRENISAFGGDPDNVTVFGESAGGMSIAALLAMPAAKGLFQKAIMESGASRTMTKEQAASTSAAFLQVLGINEGQLDKLHTVSAEDLLKAADQLRIAEKENIFQLFFQPALDPKTLPEEPEKAIAEGAASGIPLLIGTTRDEGYLFFTPDSDVHSQETLDAALEYLLGKPLAEKVADLYPRSLESQIHMMTDLLFWRPAVAYASAQSHYAPVWMYRFDWHPKKPPYNKAFHALELPFVFGNLDGLERMAKAEITDEVKQLSHTIQSAWITFAKTGNPSTEAVNWPAYHEETRETLILDSEITIENDPESEKRQKLFPSKGE
notes: as for B2
On to B4, for which, in “purified protein [2]”, the Michaelis-Menten constant (Km) stood at 100 ± 20 µM, the kcat is 37.7 ± 1.98 s⁻¹ and the kcat/Km turned out to be 382000 ± 84500 M⁻¹ s⁻¹.
